According to patent publication US6084068, “Elongin A and C functional domains” (Oklahoma Medical Research Foundation, dated 2000):
Substitutions are numbered along the chain they refer to.

B1: wild type C. elegans Elongin A (other)
chain: MPETDEEKVRRYTECLMNGIDPKRALKRLYDLNVSPEVFKSADTVQCVKRYESSPELAKYAKRVRDKLLGGRKREKGGGEDDADIEHTALKKAKKEEVNLDEEFAEAMKSGVSAQASSAPRATVDYSKYKVVKRVEVKVEPKPEPVDVHEQQASSSSMSYQREHQKDYAPVVPTCKPSGQPKKAIPQSKSLHADENMFKPRKERQKVFAGRRKRVGEGVSTLVSLCQTVLMSHIDMIDHVGIVPFDLLKPVLDHASTDQLRHILDVNPMLVEDADEMFHEMVSREFPKYANREKSGWTWREMYDRLVEKKQKKENDKLEMLTSRIGKSNSAQSQGRQTMVIDMAHTRVRSKSFFNTVKDSQVKMSATPSALQLSQARKNVKIEGKAQLRTITPRGGGVPSTSRSRSNNNNNMNNGLVVKKTAPLMAKCKKMLKR
B2: Elongin C deletion mutant C(1-83) (other)
chain: MDGEEKTYGGCEGPDAMYVKLISSDGHEFIVKREHALTSGTIKAMLSGPGQFAENETNEVNFREIPSHVLSKVCMYFTYKVRY
B3: Elongin C internal deletion mutant C(Δ51-60) (other)
chain: MDGEEKTYGGCEGPDAMYVKLISSDGHEFIVKREHALTSGTIKAMLSGPGNFREIPSHVLSKVCMYFTYKVRYTNSSTEIPEFPIAPEIALELLMAANFLDC
B4: Elongin C internal deletion mutant C(Δ61-70) (other)
chain: B3 chain with N51Q, R53A, I55N, P56E, S57T, H58N, V59E, L60V
B5: Elongin C internal deletion mutant C(Δ71-80) (other)
chain: MDGEEKTYGGCEGPDAMYVKLISSDGHEFIVKREHALTSGTIKAMLSGPGQFAENETNEVNFREIPSHVLVRYTNSSTEIPEFPIAPEIALELLMAANFLDC
B6: Elongin C internal deletion mutant C(Δ81-90) (other)
chain: B5 chain with V71S, R72K, Y73V, T74C, N75M, S76Y, S77F, E79Y, I80K
B7: Elongin C alanine scanning mutant C(Ala19-21) (other)
chain: MDGEEKTYGGCEGPDAMYAAAISSDGHEFIVKREHALTSGTIKAMLSGPGQFAENETNEVNFREIPSHVLSKVCMYFTYKVRYTNSSTEIPEFPIAPEIALELLMAANFLDC
B8: Elongin C alanine scanning mutant C(Ala22-24) (other)
chain: B7 chain with A19V, A20K, A21L, I22A, S23A, S24A
B9: Elongin C alanine scanning mutant C(Ala25-27) (other)
chain: B7 chain with A19V, A20K, A21L, D25A, G26A, H27A
B10: Elongin C alanine scanning mutant C(Ala28-30) (other)
chain: B7 chain with A19V, A20K, A21L, E28A, F29A, I30A
B11: Elongin C deletion mutant C(15-112) (other)
chain: DAMYVKLISSDGHEFIVKREHALTSGTIKAMLSGPGQFAENETNEVNFREIPSHVLSKVCMYFTYKVRYTNSSTEIPEFPIAPEIALELLMAANFLDC
B12: Elongin C internal deletion mutant C(Δ31-40) (other)
chain: MDGEEKTYGGCEGPDAMYVKLISSDGHEFITIKAMLSGPGQFAENETNEVNFREIPSHVLSKVCMYFTYKVRYTNSSTEIPEFPIAPEIALELLMAANFLDC
B13: Elongin C internal deletion mutant C(Δ41-50) (other)
chain: B12 chain with T31V, I32K, K33R, A34E, M35H, L36A, S37L, G38T, P39S
B14: Elongin C internal deletion mutant C(Δ21-30) (other)
chain: B12 chain with L21V, I22K, S23R, S24E, D25H, G26A, H27L, E28T, F29S, I30G
B15: Elongin C deletion mutant C(19-112) (other)
chain: VKLISSDGHEFIVKREHALTSGTIKAMLSGPGQFAENETNEVNFREIPSHVLSKVCMYFTYKVRYTNSSTEIPEFPIAPEIALELLMAANFLDC
B16: C. elegans Elongin A mutant C.e.EloA(202-434) (other)
chain: KERQKVFAGRRKRVGEGVSTLVSLCQTVLMSHIDMIDHVGIVPFDLLKPVLDHASTDQLRHILDVNPMLVEDADEMFHEMVSREFPKYANREKSGWTWREMYDRLVEKKQKKENDKLEMLTSRIGKSNSAQSQGRQTMVIDMAHTRVRSKSFFNTVKDSQVKMSATPSALQLSQARKNVKIEGKAQLRTITPRGGGVPSTSRSRSNNNNNMNNGLVVKKTAPLMAKCKKMLKR
B17: Elongin C deletion mutant C(23-112) (other)
chain: SSDGHEFIVKREHALTSGTIKAMLSGPGQFAENETNEVNFREIPSHVLSKVCMYFTYKVRYTNSSTEIPEFPIAPEIALELLMAANFLDC
B18: Elongin C internal deletion mutant C(Δ91-100) (other)
chain: MDGEEKTYGGCEGPDAMYVKLISSDGHEFIVKREHALTSGTIKAMLSGPGQFAENETNEVNFREIPSHVLSKVCMYFTYKVRYTNSSTEILELLMAANFLDC

Experiments:
[1] = target: T1, Elongin BC complex (wild type rat Elongin B and C) (rat, UniProt P62870); assay: refolded with rat Elongin B and C; TSK SP-NPR HPLC, SDS-PAGE, silver staining
T1 chain 1: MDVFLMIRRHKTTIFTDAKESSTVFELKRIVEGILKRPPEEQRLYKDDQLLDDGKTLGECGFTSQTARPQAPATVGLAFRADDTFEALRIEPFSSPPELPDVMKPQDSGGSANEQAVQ
T1 chain 2: B7 chain with A19V, A20K, A21L
Protocol: Figure 8A: FIG. 8A. Analysis of wild type and mutant C. elegans Elongin A wherein wild type or mutant C. elegans Elongin A was refolded with rat Elongin B and C and subjected to TSK SP-NPR HPLC as described. Aliquots of the peak column fractions were analyzed by SDS-PAGE, and proteins were visualized by silver staining. WT C.e. […] Figure 8B: FIG. 8B. ~2 pmol of human or C. elegans Elongin A proteins were refolded as described (Bradsher, et al., *J Biol Chem* 268: 25587–25593 (1993)) in the presence or absence of ~2 pmol of rat Elongin B and C. Aliquots of refolded protein were assayed for transcriptional activity in oligo dc-tailed template assays performed as described. Reaction mixtures contained no Elongin (lane 1); 3 and 9 μl of renatured human Elongin A without (lanes 2 and 3) or with (lanes 4 and 5) Elongin B and C; 3 and 9 μl of renatured wild type C. elegans Elongin A without (lanes 6 and 7) or with (lanes 8 and 9) Elongin B and C; 3 and 9 μl of renatured C.e. EloA(94–434) (SEQ ID NO:44) without (lanes 10 and 11) or with (lanes 12 and 13) Elongin B and C; 3 and 9 μl of renatured C.e. EloA (202–434) (SEQ ID NO:45) with (lanes 14 and 15) or without (lanes 16, and 17) Elongin B and C.

wild type Elongin B = wild type Elongin B (rat, UniProt P62870); assay: refolded with wild type Elongin B; TSK DEAE-NPR HPLC, SDS-PAGE, silver staining
Protocol: Figure 10A: FIG. 10A. […] Aliquots of the indicated column fractions were analyzed by SDS-PAGE, and proteins were visualized by silver staining. Figure 10B: FIG. 10B. N-terminal, C-terminal, and internal Elongin C deletion mutants were assayed for their abilities to form Elongin BC complexes as described.
~6 µg of Elongin B was mixed with ~6 µg of either wild type or mutant Elongin C and diluted 5-fold with 40 mM Hepes-NaOH (pH 7.9), 100 mM KCl, 2 mM DTT, 50 µM ZnSO_4, 0.1 mM EDTA, and 10% (v/v) glycerol. After incubation for 90 min on ice, the mixtures were dialyzed at 4° C. overnight against 40 mM Tris-HCl (pH 7.9), 0.1 mM EDTA, 10% (v/v) glycerol, and 40 mM KCl. Following dialysis, the mixtures were centrifuged at 60,000×g for 15 min at 4° C. The resulting supernatants were applied to TSK DEAE-NPR columns (35 mm×4.6 mm, Toso-Haas) pre-equilibrated in 40 mM Tris-HCl (pH 7.9), 0.1 mM EDTA, 1 mM DTT, 10% (v/v) glycerol, and 40 mM KCl and fractionated using a SMART microchromatography system (Pharmacia) at 8° C. The columns were eluted at 0.3 ml/min with a 3 ml linear gradient from 0.04 to 0.5M KCl in 40 mM Tris-HCl (pH 7.9), 0.1 mM EDTA, 1 mM DTT, and 10% (v/v) glycerol. Aliquots of each column fraction were analyzed by 10% Tris-Tricine SDS-polyacrylamide gel electrophoresis, and the proteins were visualized by silver staining.

wild type Elongin A = target: T2, wild type Elongin A (rat); assay: refolded with wild type Elongin A and B; TSK SP-NPR HPLC, SDS-PAGE, silver staining
T2 chain: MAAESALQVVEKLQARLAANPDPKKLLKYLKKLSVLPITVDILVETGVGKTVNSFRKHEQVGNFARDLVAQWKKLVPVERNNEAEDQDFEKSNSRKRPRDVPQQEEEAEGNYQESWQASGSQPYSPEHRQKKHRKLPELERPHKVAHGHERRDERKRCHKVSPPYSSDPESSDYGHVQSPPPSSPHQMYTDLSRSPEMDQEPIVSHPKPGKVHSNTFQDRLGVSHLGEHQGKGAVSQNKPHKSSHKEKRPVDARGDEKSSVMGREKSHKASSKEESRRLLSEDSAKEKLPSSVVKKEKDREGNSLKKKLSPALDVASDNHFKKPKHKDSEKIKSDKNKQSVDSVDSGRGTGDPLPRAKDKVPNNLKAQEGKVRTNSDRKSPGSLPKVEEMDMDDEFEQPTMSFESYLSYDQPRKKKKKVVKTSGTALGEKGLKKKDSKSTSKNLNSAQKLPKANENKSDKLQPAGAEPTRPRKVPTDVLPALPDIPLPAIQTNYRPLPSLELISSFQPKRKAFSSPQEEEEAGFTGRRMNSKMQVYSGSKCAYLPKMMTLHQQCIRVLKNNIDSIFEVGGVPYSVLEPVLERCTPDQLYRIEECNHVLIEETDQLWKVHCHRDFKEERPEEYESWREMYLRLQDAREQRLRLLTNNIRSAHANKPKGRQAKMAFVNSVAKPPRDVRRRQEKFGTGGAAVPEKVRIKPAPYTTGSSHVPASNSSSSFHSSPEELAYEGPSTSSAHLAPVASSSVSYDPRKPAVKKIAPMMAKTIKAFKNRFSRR

Binder	binding result [1]	binding result (wild type Elongin B)	binding result (wild type Elongin A)
B1	binds		
B2		binds	
B3		binds	
B4		binds	
B5		binds	
B6		binds	
B7		binds	
B8		binds	
B9		no binding	
B10		no binding	
B11		binds	
B12		binds	
B13		binds	
B14		no binding	no binding
B15		binds	
B16	binds		
B17		no binding	
B18		binds	
